The text below walks through data of paper PMC12028538, “The Characterization of the Purine Nucleoside Phosphorylase from Agaricus bisporus and Its Potential Application in Reducing Purine Content in Beer” (Journal of Fungi, 2025).

Substrate in this series: OC[C@H]1O[C@@H](n2cnc3c(O)ncnc32)[C@H](O)[C@@H]1O
As to the kind of experiment: HPLC of hypoxanthine formed, Michaelis-Menten fit. The settings on record: phosphorolysis, potassium phosphate co-substrate (50 mM in the standard assay), pH 7.0, 60 °C, 0–16 mM inosine, b52 prints the unit as µmol. It counts as biochemical, Agaricus bisporus.

B1: AbPNP (Agaricus bisporus var. burnettii JB137-S8) (protein)
chain: MKTNILSTVEYIRSQLPPELQQPRVGIVCGSGLSGLAGIIQNIHTIPYANIPGFGTSTVPGHRSELAFGLLGKNGVPVVAMLGRFHFYEGHPLSTVVYPIRVMARLGITEILITNAAGSLNPDIPTGTIVVVHDHIAFPGMAGTNPLMGPQTSPEHPRFLALSDAYSPSLRRLLFLAAHQLSLSKSALAEGTYAWVSGPNYETPAEGILLRSIGVDVVGMSTVPEVLVAREEGLKVMVLSLVTNLVVIPPSYKSIREEVEAELAGQSFVTPEEQVVSHDEVLAVGKEKAEVIKSLVQRVVELLS
notes: N-terminal 6xHis tag; codon-optimized gene in pPIC9K, Pichia pastoris GS115, Ni-NTA purified
On to B1, for which the Km (commonly the substrate concentration at which the rate is half of its maximum) stood at 7.10 µM and the kcat (commonly the maximal rate divided by the concentration of active sites) is 14.38 s⁻¹.
